The EC50 is the concentration giving half of the maximal effect.

The values that follow come from patent publication US20220396632A1 (VERSEAU THERAPEUTICS, published 2022).

Experiment [1] deals with T1, Biotin PSGL-1(42-62) peptide, unmodified (human, C-terminal Lys-biotin).
T1 construct: Residues 42-62 followed by GGGK-biotin; also called WT; wild-type
T1 peptide: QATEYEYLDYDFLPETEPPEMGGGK
Kind of experiment: ELISA, plate-bound peptide. (In an ELISA, binding on a coated surface is turned into a signal by an enzyme label.)

In experiment [2] the target is T2, Biotin sY46 PSGL-1(42-62) peptide (human, sulfotyrosine at Y46; C-terminal Lys-biotin).
T2 peptide: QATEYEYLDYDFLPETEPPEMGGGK
Kind of experiment: capture ELISA; against 3 x sY peptide. The procedure: (§1) Two ELISA methods were performed. One procedure detected mAb binding to its plate-immobilized target and the other measured the immobilized antibody's ability to capture biotinylated PSGL-1₄₂₋₆₂. […] The plate was incubated for 45 min at 37° C. Plates were washed 3 times with wash buffer (PBS containing 0.05% tween 20, pH 7.4) and a single concentration (2 to 500 nM) or serially diluted (0.002-100 nM) anti-PSGL-1 mAb was added (25 ul/well) in assay buffer into appropriate wells. The plate was incubated for 45 min at 37° C., washed 3 times, and an appropriate HRP-conjugated secondary antibody added (25 ul/well) (HRP goat anti-mouse or anti-human IgG). After 45 min incubation at 37° C., the plate was washed, and antibody bound to plate-immobilized target was determined at A450 nm using HRP substrate (3,3′,5,5′-etramethylbenzidine (TMB)). For each antibody, duplicate values were averaged and assay background was subtracted. Except for the following, ELISAs involving plate-immobilized mAb capturing of biotinylated PSGL-1₄₂₋₆₂ peptides was performed in the same manner as described above: 3 ug/mL/25 ul per well of mAb was coated directly onto microtiter plate wells; biotinylated unmodified or sulfotyrosine PSGL-1₄₂₋₆₂ was serially diluted (3 nM-3 uM) into appropriate wells, and antibody-bound peptide was detected using HRP-streptavidin (Jackson Immunoresearch, Cat. #016-030-084).

Experiment [3] addresses T3, Biotin Y46,48,51(SO3) PSGL-1(42-62) peptide (human, sulfotyrosine at Y46, Y48 and Y51; C-terminal Lys-biotin).
T3 construct: also called fully sulfated N-terminal PSGL-1 peptide
T3 peptide: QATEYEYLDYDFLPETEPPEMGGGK
Kind of experiment: capture ELISA; against 3 x sY peptide. The procedure:
as §1

The target of experiment [4] is T4, Biotin sY48 PSGL-1(42-62) peptide (human, sulfotyrosine at Y48; C-terminal Lys-biotin).
T4 construct: also called sY48S
T4 peptide: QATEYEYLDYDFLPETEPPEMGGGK
Nature of the experiment: capture ELISA; against 3 x sY peptide. The procedure:
as §1

In experiment [5] the target is T5, Biotin sY51 PSGL-1(42-62) peptide (human, sulfotyrosine at Y51; C-terminal Lys-biotin).
T5 construct: also called Y51(SO3) PSGL-1(42-62)
T5 peptide: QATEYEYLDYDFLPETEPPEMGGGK
Nature of the experiment: capture ELISA; against 3 x sY peptide. The procedure: as §1

Experiment [6] addresses T1, Biotin PSGL-1(42-62) peptide, unmodified. Nature of the experiment: ELISA, plate-bound mAb captures biotin peptide. A digest of the protocol: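 Direct format: anti-PSGL-1 mAb at a single concentration (2–500 nM) or serially diluted (0.002–100 nM) on immobilized target, detected with HRP anti-IgG and TMB at A450; 45 min steps at 37° C. Capture format: coated mAb (3 ug/mL) binds biotinylated unmodified or sulfotyrosine peptide (3 nM–3 uM), detected with HRP-streptavidin.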

B1: 20I15 (antibody, V domains shown)
VH: EVKLVESGGGLVQPGGSLSLSCAASGFTFTDYYMSWVRQPPGKALEWLGFIRNKANGYTTEYSASVKGRFTISRDNSQSILYLQMNALRAEDSATYYCARTYLRRGYFDVWGTGTTVTVSS
VL: DIVLTQSPASLAVSLGQRATISCRASKSVSTSGYSYMHWFQQKPGQPPKLLIYLASNLESGVPARFSGSGSGTDFTLNIHPVEEEDAATYYCQHSRELPLTFGAGTKLELK
notes: From mouse immunisation; only variable domains given; also called 20115
Consider B1, for which, in experiment [1], the “fold weaker binding than to sulfotyrosine PSGL-1 42-62” value was > 50 fold. Further, the “EC50/EC50 3x(SO3)Y” value in experiment [2] was ~10 fold; in experiment [3], 1 fold; in experiment [4], ~10 fold; in experiment [5] it was ~10 fold. In experiment [6], the concentration for a half-maximal effect (EC50) is ~3000 nM.
